# Measurements: patent US20140369997A1, “Pharmaceutical composition for a foaming eye drop” (PASE, priority 2011, published 2014)
# Assay: Foaming of eye drop solution containing a foaming agent mixed with gas
# Format: physicochemical
# Description: The preferred embodiment is a solution containing between 0.25%-5% of hydroxypropyl methylcellulose. This has been proven to produce a foam that is capable of holding enough gas to result in a 90% reduction in volume of the medication distributed in a drop. In other words the foam that is created is 90% gas and 10% liquid. The addition of hydroxypropyl methylcellulose is one of many ways that the pharmaceutical composition of the eye medication can be changed.
# Any preferred additive should have properties similar to hydroxypropyl methylcellulose such that a large reduction in volume of liquid from the foamed form to the liquid form is obtained. The additive should be chosen to reduce the risk of eye irritation and to minimize any potential binding of the active ingredient. Hydroxypropyl methylcellulose is especially preferred because it is already known to be a safe ingredient to be applied to the eye as it is currently used in many eye drops to lubricate the eye. It also produces a more viscous solution which increases the retention time in the eye, thus giving the medication more time to be absorbed.
substance,measurement,setting,value
albumin,consistency of foam produced,albumin concentration between 1%-25%,foam of the desired consistency
same,foaming agent quality,tested as foaming agent,excellent foaming agent
